Test results taken from patent publication US5362852A, “Modified peptide derivatives conjugated at 2-hydroxyethylamine moieties” (Pfizer Inc., priority 1991, dated 1994).

T1: human CRF receptor (Homo sapiens, UniProt P34998)
T1 construct: human CRF receptor (prepared from cultured SK-N-SH cells); endogenous in cells; host or cells: SK-N-SH cells (human neuroblastoma), receptor preparation
T1 sequence (P34998 24-415): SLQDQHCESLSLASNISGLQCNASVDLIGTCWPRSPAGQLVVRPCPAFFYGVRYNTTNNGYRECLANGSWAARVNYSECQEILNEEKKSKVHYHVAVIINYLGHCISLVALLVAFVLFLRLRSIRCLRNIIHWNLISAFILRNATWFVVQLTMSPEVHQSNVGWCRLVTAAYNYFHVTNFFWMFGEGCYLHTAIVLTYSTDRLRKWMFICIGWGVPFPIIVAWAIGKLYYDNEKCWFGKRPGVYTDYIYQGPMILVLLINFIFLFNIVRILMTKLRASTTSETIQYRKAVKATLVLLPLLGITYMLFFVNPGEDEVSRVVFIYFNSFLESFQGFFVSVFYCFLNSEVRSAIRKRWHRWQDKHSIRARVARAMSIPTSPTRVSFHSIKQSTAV


How the values were obtained:
[1] = molecular target: T1, human CRF receptor; assay: ability to bind to the human CRF receptor (prepared from cultured SK-N-SH cells); type: binding; conditions: products dissolved in 0.05M sodium phosphate, pH 7.0
Description: The products were dissolved in 0.05M sodium phosphate, pH 7.0, and tested for their ability to bind to the human CRF receptor (prepared from cultured SK-N-SH cells).

[2] = molecular target: human CRF receptor (human); assay: receptor binding assay on human CRF receptor prepared from cultured SK-N-SH cells

IC50 [1]	IC50 [2]	Molecule
	5 nM	SQEPPISLDLTFHLLREVLEXTKADQLAQQAHSNRKLLDIA (N-terminal Ser oxidised by periodate to glyoxylyl (=CH-CO-) and coupled as hydrazone to 6-((biotinoyl)amino)caproic acid hydrazide (biotin-X-hydrazide); Met 21 as the sulfoxide (Met^21 O)) [N-terminally biotinylated ovine CRF [Met^21 O]]
	5 nM	SQEPPISLDLTFHLLREVLEXTKADQLAQQAHSNRKLLDIA (N-terminal Ser oxidised by periodate to glyoxylyl (=CH-CO-) and coupled as hydrazone to Lucifer Yellow; Met 21 as the sulfoxide (Met^21 O)) [Lucifer Yellow conjugate of ovine CRF [Met^21 O]]

Continued, molecule first:

Molecule	IC50 [1]	IC50 [2]
CC[C@H](C)[C@H](NC(=O)[C@H](CC(=O)O)NC(=O)[C@H](CC(C)C)NC(=O)[C@H](CC(C)C)NC(=O)[C@H](CCCCN)NC(=O)[C@H](CCCNC(=N)N)NC(=O)[C@H](CC(N)=O)NC(=O)[C@H](CO)NC(=O)[C@H](Cc1c[nH]cn1)NC(=O)[C@H](C)NC(=O)[C@H](CCC(N)=O)NC(=O)[C@H](CCC(N)=O)NC(=O)[C@H](C)NC(=O)[C@H](CC(C)C)NC(=O)[C@H](CCC(N)=O)NC(=O)[C@H](CC(=O)O)NC(=O)[C@H](C)NC(=O)[C@H](CCCCN)NC(=O)[C@@H](NC(=O)[C@H](CC[S+](C)[O-])NC(=O)[C@H](CCC(=O)O)NC(=O)[C@H](CC(C)C)NC(=O)[C@@H](NC(=O)[C@H](CCC(=O)O)NC(=O)[C@H](CCCNC(=N)N)NC(=O)[C@H](CC(C)C)NC(=O)[C@H](CC(C)C)NC(=O)[C@H](Cc1c[nH]cn1)NC(=O)[C@H](Cc1ccccc1)NC(=O)[C@@H](NC(=O)[C@H](CC(C)C)NC(=O)[C@H](CC(=O)O)NC(=O)[C@H](CC(C)C)NC(=O)[C@H](CO)NC(=O)[C@@H](NC(=O)[C@@H]1CCCN1C(=O)[C@@H]1CCCN1C(=O)[C@H](CCC(=O)O)NC(=O)[C@H](CCC(N)=O)NC(=O)[C@@H](N)CO)[C@@H](C)CC)[C@@H](C)O)C(C)C)[C@@H](C)O)C(=O)N[C@@H](C)C(N)=O (stereo partly shown) [CRF [Met^21 O]]	5 nM	
underivatized CRF [Met^21 O]		5 nM
